From US20210340173A1

Columns and labels:
CCR5 on HEK-CCR5 cells = CCR5 on HEK-CCR5 cells (UniProt P51681); test: cell-based or functional assay
[1] = molecular target: CCR5-RLuc8 on CHO-CCR5-RLuc8/YFP-CAAX cells (UniProt P51681); test: cell-based or functional assay

| Ca2+ flux signaling at 300 nM on HEK-CCR5 cells (top of the scale) (CCR5 on HEK-CCR5 cells) [%] | CCR5 internalization (bystander BRET) at 300 nM (top of the scale) [1] [%] | Ca2+ flux signaling at 300 nM on HEK-CCR5 cells (bottom of the scale) (CCR5 on HEK-CCR5 cells) [%] | CCR5 internalization (bystander BRET) at 300 nM (bottom of the scale) [1] [%] | Substance |
| --- | --- | --- | --- | --- |
| 100 | 100 |  |  | PSC-RANTES reference standard (ligand) |
|  |  | 0 | 0 | 5P12-RANTES reference standard (from UniProt P13501 34-91) (ligand) |
